± gives the standard error. This sample holds only a part of the variants without activity.
B1: glmS ribozyme (parent)
chain: AUAAAAGCGCCAGAACUACAGAAAUGUAGUUGACGAGGAGGAGGUUUAUCGAAUUUUCGGCGGAUGCCUCCAAA

Tests used:
Conditions in all cases: with glucosamine-6-phosphate
glucosamine-6-phosphate [1] = variants of: B1; assay: self-cleavage kobs at 40 uM GlcN6P; higher = faster cleavage; RNA array
Summary of the method: (§1)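 Sequenced MiSeq chips were the platform: E. coli RNA polymerase transcribed barcoded ribozyme variants on them in situ, and a hybridised Cy3 probe tracked these at 37 °C. After glucosamine-6-phosphate (40 μM to 10 mM) in HEPES/KCl/Mg(OAc)2 buffer was flowed in, tiles were imaged over ~14 h. Signals normalised to baseline and to non-cleaving reference variants were reduced to per-tile medians and fit to one- or two-exponential decays to obtain kobs. kcat and KM were derived through weighted Michaelis–Menten fits across concentrations.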

glucosamine-6-phosphate [2] = variants of: B1; assay: self-cleavage kobs at 160 uM GlcN6P; higher = faster cleavage; RNA array
Summary of the method: as §1

glucosamine-6-phosphate [3] = variants of: B1; assay: self-cleavage kobs at 640 uM GlcN6P; higher = faster cleavage; RNA array
Summary of the method: as §1

glucosamine-6-phosphate [4] = variants of: B1; assay: self-cleavage kobs at 2500 uM GlcN6P; higher = faster cleavage; RNA array
Summary of the method: as §1

glucosamine-6-phosphate [5] = variants of: B1; assay: self-cleavage kobs at 10000 uM GlcN6P; higher = faster cleavage; RNA array
Summary of the method: as §1

Variant	self-cleavage kobs at 40 uM GlcN6P (glucosamine-6-phosphate [1]) [s⁻¹]	self-cleavage kobs at 160 uM GlcN6P (glucosamine-6-phosphate [2]) [s⁻¹]	self-cleavage kobs at 640 uM GlcN6P (glucosamine-6-phosphate [3]) [s⁻¹]	self-cleavage kobs at 2500 uM GlcN6P (glucosamine-6-phosphate [4]) [s⁻¹]	self-cleavage kobs at 10000 uM GlcN6P (glucosamine-6-phosphate [5]) [s⁻¹]
G7A G40C	< 1e-05	< 1e-05	< 1e-05	< 1e-05	
C10U G40U	< 1e-05				< 1e-05
G13C G35A A39G A53C U56C G63C	< 1e-05		< 1e-05	< 1e-05	< 1e-05
A14U G37A A39C G59C	< 1e-05				
A14G U56C G59U	< 1e-05				2.7e-05 ± 1.3e-05
A33U C58U C71A	< 1e-05		< 1e-05	< 1e-05	
U30A G37U G44U U45A C70U	< 1e-05				< 1e-05
G9A U31G C68G	< 1e-05		< 1e-05		
G13C G51C	< 1e-05		< 1e-05	< 1e-05	< 1e-05
A12U C71A	0.000512 ± 5.5e-05	0.0012 ± 0.00016	0.00333 ± 0.00046	0.0115 ± 0.0027	0.0343 ± 0.0084
G29C A64U	< 1e-05	< 1e-05			
G9C G38U G63A	< 1e-05				
C34U U55G	< 1e-05	< 1e-05	< 1e-05		
A33U G37C	< 1e-05	< 1e-05			< 1e-05
A6C G41U U65A	< 1e-05				
A6G A14U G40C C67G	< 1e-05		< 1e-05		
U31C A39U C68A	< 1e-05		< 1e-05		
A6U G32C G41U	< 1e-05				
A6G G29U G35A C50G G51U G66U C71U	< 1e-05				
G9C A15U	< 1e-05	< 1e-05	< 1e-05	< 1e-05	< 1e-05
C11A C50G	5.74e-05 ± 1.4e-05	0.000276 ± 7.2e-05	0.000195 ± 4e-05	9.24e-05 ± 1.4e-05	8.61e-05 ± 1.6e-05
A14C A42C	< 1e-05		< 1e-05	< 1e-05	
A12G C50G C58U	0.000139 ± 4.9e-05				3.85e-05 ± 1.8e-05
A6C G62A G66C U69A	< 1e-05				< 1e-05
A6G G44U C58U G63U	< 1e-05			< 1e-05	
C10A A53G G60C	< 1e-05				

Reference: the supplement of paper PMC7125110
